From patent US20100092460A1 (Ablynx, published 2010) come the findings set out here.

In general, pIC50 refers to the negative decadic logarithm of the IC50, by convention in mol/L.

Experiment [1] concerns the target T1, CCL5 (UniProt P13501 24-91, 125I label).
T1 construct: also called RANTES
T1 sequence (looked up): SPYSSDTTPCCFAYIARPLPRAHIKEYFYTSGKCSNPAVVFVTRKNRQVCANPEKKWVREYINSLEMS
As to the kind of experiment: inhibition of 125I-CCL5 (56 pM) binding to CCR1 on HEK293T cells; radioligand preincubated with purified Nanobody.

Experiment [2] addresses T2, recombinant human CCL5/RANTES (Mucin stalk Chimera) (human, UniProt P13501 24-91, biotinylated in the ELISA).
T2 construct: also called mucin-CCL5; not shown: mucin stalk of the chimera (R&D 978-RN/CF); origin, limits and order not described
T2 sequence (looked up): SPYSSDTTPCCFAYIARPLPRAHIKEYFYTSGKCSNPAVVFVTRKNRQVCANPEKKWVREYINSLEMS
As to the kind of experiment: ELISA, periplasmic extract on biotinylated mucin-CCL5 on neutravidin, anti-myc detection.

The target of experiment [3] is T1, CCL5. Nature of the experiment: inhibition of 125I-CCL5 binding to hCCR1 (HEK293T cells), purified Nanobody.
For experiment [4], the target named is T3, recombinant human CXCL11/I-TAC (human, UniProt O14625 22-94, biotinylated in the ELISA; 125I label in the radioligand assays).
T3 sequence (looked up): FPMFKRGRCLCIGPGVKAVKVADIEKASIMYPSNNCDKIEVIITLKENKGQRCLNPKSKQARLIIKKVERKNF
As to the kind of experiment: inhibition of 125I-CXCL11 binding to hCXCR3 (HEK293T cells), 10x diluted periplasm; ELISA grade at the label. Background: In an ELISA, binding on a coated surface is turned into a signal by an enzyme label.

In experiment [5] the target is T3, recombinant human CXCL11/I-TAC. As to the kind of experiment: ELISA, Nanobody captured by coated anti-myc antibody, biotinylated CXCL11, streptavidin-HRP.
In experiment [6] the target is T4, recombinant human CCL2/MCP1 (human, UniProt P13500 24-99, 125I label in the radioligand assays).
T4 construct: Immunogen and selection antigen was the Mucin stalk Chimera (R&D 979-MC/CF)
As to the kind of experiment: inhibition of 125I-CCL2 binding to HCMV-US28 (HEK293T cells), 10x diluted periplasm; ELISA grade at the label.

For experiment [7], the target named is T4, recombinant human CCL2/MCP1. As to the kind of experiment: inhibition of 125I-CCL2 binding to hCCR2 (HEK293T cells), purified Nanobody.
Experiment [8] has as its target T3, recombinant human CXCL11/I-TAC. As to the kind of experiment: cell-based or functional assay.
Experiment [9] has the same target. Nature of the experiment: inhibition of 125I-CXCL11 (46 pM) binding to hCXCR3 on HEK293T cells; radioligand preincubated with purified Nanobody.
Experiment [10] deals with T4, recombinant human CCL2/MCP1. Nature of the experiment: inhibition of 125I-CCL2 (59 pM) binding to HA3-CCR2 on HEK293T cells; radioligand preincubated with purified Nanobody.

T4 sequence (P13500 24-99 limits assumed): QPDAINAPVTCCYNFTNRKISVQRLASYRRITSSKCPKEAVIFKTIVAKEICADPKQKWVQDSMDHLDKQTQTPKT

B1: Nanobody 17B11 (VHH)
VHH: EVQLVESGGGLVQAGGSLRLSCAASGFNFDDYAIGWFRQAPGKEREGVSCISSSDGSTYSADSVKGRFTISSDNAKNTVYLQMNNLNPEDTAAYYCAAAPPDCTYYPATPIYYWGQGTQVTVSS
notes: llama VHH against CCL5; purified; not shown: C-terminal c-myc tag and (His)6 tag coded by the vector
In [1], B1 yielded a pIC50 of 9.

B2: Nanobody 10A12 (VHH)
VHH: EVQLVESGGGLVQAGGSLRLSCAASGFTFDDYAIGWFRQVPGKERKGVSCISSSDGTTYYEDSVKGRFTISSDNAKNTIYLQMNSLKPEDTAVYYCAAAPPDCTYYPATPIYYWGQGTQVTVSS
notes: as for B1
In the case of B2, the binding result in experiment [2] and in experiment [3] was “binds” each time.

B3: Nanobody 11D9 (VHH)
VHH: EVQLVESGGGLVQAGGSLRLSCAASGFTFDDYPIGWFRQAPGKEREGISCISSSDGSTYYADSVKGRFTISSDNAKNTVYLQMNSLKPEDTAVYYCAAGLGALVRYYSGSYYCDGMDYWGKGTLVTVSS
notes: llama VHH against CXCL11; not shown: C-terminal c-myc tag and (His)6 tag coded by the vector
Turning to B3, in experiment [4], the binding result is reported as “binds”.

B4: Nanobody 38E6 (VHH)
VHH: EVQLVESGGGLAQPGGSLRLSCAASGFTFSSYAMSWVRQAPGKGLEWVSAINSGGGSTSYADSVKGRFTISRDNAKNTLYLQMNSLKPEDTAVYYCQRGDYEFEPLEYDYWGQGTQVTVSS
notes: as for B3
B4: the binding result in [5] was “binds”.

B5: Nanobody 11G10 (VHH)
VHH: EVQLVESGGGLVQPGGSLRLSCAASGFTLDDYAIGWFRQAPGKEREGVSSISSSDGRTYYADSVKGRFAISRDNAKNTVYLQMNSLKPEDTAVYYCAADQGVVAYDALRPYRWLEVWGQGTLVTVSS
notes: as for B3
As for B5, the binding result in experiment [4] is “binds”.

B6: Nanobody 8A8 (VHH)
VHH: EVQLVESGGGLVQAGGSLRLSCAASGRTFSSYRMGWFRQAPEKEREFVAVITRSGSDQFYSNSVKGRFTISRDNAKNTVYLQMNSLKPEDTAVYYCAAGAQIGWAEASTYDYWGQGTQVTVSS
notes: llama VHH against CCL2; also called 8D8; 15C7; not shown: C-terminal c-myc tag and (His)6 tag coded by the vector
Turning to B6, the binding result in experiment [6] is given as “binds”.

B7: Nanobody 8H8 (VHH)
VHH: EMQLVESGGGLVQAGGSLRLSCAASGRTFSSYRMGWFRQAPEKEREFVALINRSGGSQFYSNSVKGRFTISRDNAKNTVYLQMNSLKPEDTAVYYCAAGAQMGWAEASTYDYWGQGTQVTVSS
notes: llama VHH against CCL2; not shown: C-terminal c-myc tag and (His)6 tag coded by the vector
Turning to B7, the binding result in experiment [6] is “binds”.

B8: Nanobody 15C8 (VHH)
VHH: EVQLVESGGGLVQAGGSLRLSCAASGRTFSSYRMGWFRQAPEKEREFVAVITRSGGSTFYSNSVKGRFTISRDNAKNTVYLQMNSLKPEDTAVYYCAAGAQMGWAEASTYDYWGQGTQVTVSS
notes: as for B7
Take B8: the binding result in experiment [6] was “binds”.

B9: Nanobody 10C8 (VHH)
VHH: EVQLVESGGGLVQAGDSLRLSCATSGRTFTMDGMGWFRQAPGKEREFVATISRSGVGTFYADSVKGRFTISRDNAKNMVYLQMNSLKPEDTALYYCAARPDYTLGTSSYDYDSWGQGTQVTVSS
notes: llama VHH against CCL5; purified; also called 10D8; 10E9; not shown: C-terminal c-myc tag and (His)6 tag coded by the vector
Turning to B9, the pIC50 in experiment [1] was 9.3.

B10: Nanobody 15A8 (VHH)
VHH: EVQLVESGGGLVQAGGSLRLSCAASGFTFDDYAIGWFRQAPGKEREGPLCISSSDGSTYYADSVKGRFTISSDNAKNTVYLQMNSLKPEDTAVYYCAAESLGDYGLASPLPADFGSWGQGTQVTVSS
notes: as for B7
On to B10, for which, in experiment [6], the binding result is recorded as “binds”.

B11: Nanobody 11F10 (VHH)
VHH: EVQLVESGGGLVQAGGSLRLSCAASGFTLDDYAIGWFRQAPGKEREGVSCISSSDGSTYYADSVKGRFTISSDNAKNTVYLQMNSLKPEDTAVYYCAAGQGVLRLWVLSSSSYDYWGQGTQVTVSS
notes: as for B3
Regarding B11, the binding result in [4] is recorded as “binds”.

B12: Nanobody 38C6 (VHH)
VHH: EVQLVESGGGLVQAGGSLRLSCAASGFTFDDYAIGWFRQAPGKEREGVSCCSSSDGSTYYADSVKGRFTISSDNAKNTVYLQMNSLKPEDTAVYYCAATQGLTIATMWNPVSYDYWGQGTQVTVSS
notes: as for B3
Consider B12, for which, in experiment [5], the binding result is on record as “binds”.

B13: Nanobody 38G6 (VHH)
VHH: EVQLVESGGGLVQAGGSLRLSCEASGFTFDDYAIGWFRQAPGKEREGVSCCSSSDGSTYYADSVKGRFTISSDNAKNTVYLQMNSLKPEDTAVYYCAATQGLLIATMWNPASYDYWGQGTQVTVSS
notes: as for B3
B13: the binding result in experiment [5] is on record as “binds”.

B14: Nanobody 8D3 (VHH)
VHH: EVQLVESGGGLVQAGGSLRLSCAASGRTFSNYAMGWFRQAPGKEREFVAAISWSDGSTYYADSVKGRFTISRDNAKNTVYLLMNSLNPEDTAVYYCAADLLAEDPAAPSRGYDYWGQGTQVTVSS
notes: as for B7
Consider B14, for which, in [7], the binding result was “binds”.

B15: Nanobody 11B2 (VHH)
VHH: EVQLVESGGGLVQAGGSLRLSCAASGFTFDDYAMCWFRQAPGKEREGVSCISSSDGSTYYADSVKGRFTISSDNAKNTVYLHMNSLKPEDTAVYYCAAAQGVVAGASLVWVPLDEYDYWGQGTQVTVSS
notes: llama VHH against CXCL11; purified; not shown: C-terminal c-myc tag and (His)6 tag coded by the vector
As for B15, in experiment [8], the “inhibition of CXCL11-induced PLC activation (3H-inositol phosphate accumulation, HEK293T cells with CXCR3 and G-alpha-qi5), pIC50” value (from here on “inhibition”) is 7.6. In addition, in experiment [9], the pIC50 turned out to be 9.1.

B16: Nanobody 8E3 (VHH)
VHH: EVQLVESGGGLVQAGGSLRLSCAASGGTFSSYRMGWFRQAPGKEREFVTLISRSGGTTDYTDSVKGRFTISRDNAKNTVSLQMNNLKPADTAVYYCAAAGSMGWNHLRDYDYWGQGTQVTVSS
notes: llama VHH against CCL2; purified; not shown: C-terminal c-myc tag and (His)6 tag coded by the vector
B16: the pIC50 in [10] came to 9.

B17: Nanobody 10E8 (VHH)
VHH: EVQLVESGGGLVQAGGSLRLSCAASGRTFSSYYMGWFRQAPGKEREFVARIGWSSGSTYYADSMKGRFTISRDNAKNTVYLQMNSLKPEDTAVYYCAAAPRYTLATVTYDYDYWGQGTQVTVSS
notes: as for B1
Regarding B17, the binding result in experiment [2] and in experiment [3] was “binds” each time.

B18: Nanobody 11B7 (VHH)
VHH: EVQLVESGGGLVQAGGSLRLSCAASGFNFDDYAIGWFRQAPGKEREGVSIISSSDGNTYYADSVKGRFTISSDNAKNTVYLQMNSLKPEDTAVYYCAAGQGWVIATMTSFRAHREYDYWGQGTQVTVSS
notes: as for B15
For the molecule B18, the “inhibition” value in experiment [8] was determined as 7.9. Moreover, in [9], the pIC50 came to 9.6.

B19: Nanobody 11E7 (VHH)
VHH: EVQLVESGGGLVQAGGSLRLSCAASGFTFDDYAIGWFRQAPGKEREGVSIISSSDGTTYYADSVKGRFTISTDNAKNTVYLQMNSLKPEDTAVYYCAAGQGWVIATMTSFRAHREYDYWGQGTQVTVSS
notes: as for B3
As for B19, in [4], the binding result is reported as “binds”.

B20: Nanobody 8E10 (VHH)
VHH: EVQLVESGGGLVQAGDSLRLSCAASGRTFSSYRMGWFRQAPGKEREFVAAISRSGASAYYADSVKGRFTCSRDNAKDTVYLQMNKLKPEDTAVYYCAASSRMGVDDPETYGYWGQGTQVTVSS
notes: as for B16
For B20, in experiment [10], the pIC50 stood at 8.7.

B21: Nanobody 8H7 (VHH)
VHH: EVQLVESGGGLVQAGDSLRLSCAASGRTFSSYRMGWFRQAPGKEREFVAAISRSGASAYYADSVKGRFTSSRDNAKNTVYLQMNKLKPEDTAVYYCAASSRIGVDDPEAYGYWSQGTQVTVSS
notes: as for B7
Take B21: the binding result in [6] is on record as “binds”.

B22: Nanobody 8A3 (VHH)
VHH: EVQLVESGGGLVQAGGSLRLSCVASGLTFSTYSMGWFRQAPGKEREFVAAINGGGSSTTYADSVKGRFTISRDNAKNTVYLQMNSLKPEDTAVYSCAVKMYSGSYSSPPGYNYWGQGTQVTVSS
notes: as for B7
As for B22, the binding result in experiment [7] was “binds”.

B23: Nanobody 11B1 (VHH)
VHH: EVQLVESGGGLVQAGGSLRLSCAASGFTFDDYTIGWFRQAPGKEREGVSCISSSDGSTYYADSVKGRFTISSDNVKNTVYLQMNSLKPEDTAVYYCAASLGFLTAQCMGVMSIGLSEYDYWGQGTQVTVSS
notes: as for B15
Consider B23, for which the “inhibition” value in experiment [8] stood at 7.8. The pIC50 in experiment [9] was determined as 9.6.
